Sequences and labels used below:
T1: human CD19 (human, UniProt P15391 20-556)
T1 construct: CD19 as expressed on Raji, NALM-6 and SU-DHL-6 cells; also called CD19 antigen; B-cell surface antigen B4
T1 sequence: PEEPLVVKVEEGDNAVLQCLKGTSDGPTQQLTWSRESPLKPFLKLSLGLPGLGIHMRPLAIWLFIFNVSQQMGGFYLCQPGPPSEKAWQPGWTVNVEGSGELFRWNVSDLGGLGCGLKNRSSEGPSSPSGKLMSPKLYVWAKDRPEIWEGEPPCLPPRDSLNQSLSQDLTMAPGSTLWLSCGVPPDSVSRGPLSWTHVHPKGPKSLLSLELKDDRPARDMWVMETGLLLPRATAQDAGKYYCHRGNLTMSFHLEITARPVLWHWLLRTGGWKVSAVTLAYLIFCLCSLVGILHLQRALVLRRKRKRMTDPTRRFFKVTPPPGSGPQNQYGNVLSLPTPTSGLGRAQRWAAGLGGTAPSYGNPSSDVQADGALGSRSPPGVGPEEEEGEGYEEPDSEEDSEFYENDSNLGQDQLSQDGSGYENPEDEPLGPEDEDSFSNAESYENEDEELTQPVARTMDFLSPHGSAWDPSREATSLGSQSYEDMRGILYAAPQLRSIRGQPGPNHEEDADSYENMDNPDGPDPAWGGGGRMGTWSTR

B1: VH16-R94K/VL43-P44V (antibody, human IgG1, V domains shown)
VH: QVQLVQSGGGVVQPGRSLRLSCAASGVSLPDYGVSWVRQAPGKGLEWVAVIWGSETTYYNSALKSRFTISRDNSKNTLYLQMNSLRAEDTAVYYCAKHYYYGGSYAMDYWGQGTLVTVSS
VL: DIVMTQTPSSLSASVGDRVTITCRASQDISKYLNWYQQKPGKAVKLLIYHTSRLHSGVPSRFSGSGSGTDFTLTISSLQPEDFATYYCQQGNTLPYTFGPGTKVDIKR
notes: Full-length human IgG1/kappa; substitutions in Kabat numbering
B2: VH16 R94K VL43 N92A (antibody, human IgG1)
heavy: not shown
VL: DIVMTQTPSSLSASVGDRVTITCRASQDISKYLNWYQQKPGKAPKLLIYHTSRLHSGVPSRFSGSGSGTDFTLTISSLQPEDFATYYCQQGATLPYTFGPGTKVDIKRTVAA
notes: as for B1
B3: VH16 R94K VL43 T93A (antibody, human IgG1, V domains shown)
VH: QVQLVQSGGGVVQPGRSLRLSCAASGVSLPDYGVSWVRQAPGKGLEWVAVIWGSETTYYNSALKSRFTISRDNSKNTLYLQMNSLRAEDTAVYYCAKHYYYGGSYAMDYWGQGTLVTVSS
VL: DIVMTQTPSSLSASVGDRVTITCRASQDISKYLNWYQQKPGKAPKLLIYHTSRLHSGVPSRFSGSGSGTDFTLTISSLQPEDFATYYCQQGNALPYTFGPGTKVDIKR
notes: as for B1
B4: VH2VL40 (antibody, V domains shown)
VH: EVQLVESGGGVVQPGRSLRLSCAASGVSLPDYGVSWVRQAPGKGLEWVAVIWGSETTYYNSALKSRFTISRDNSKNTLYLQMNSLKTEDTAVYYCTTHYYYGGSYAMDYWGQGTLVTVSS
VL: DIVMTQTPSSLSASVGDRVTITCRASQDISKYLNWYQQKPGKVPNLLIYHTSRLHSGVPSRFSGSGSGTEFTLTISSLQPEDFATYYCQQGNTLPYTFGGGTKVEIKR
B5: VH5VL40 (antibody, V domains shown)
VH: EVQLVESGGGLVKPGGSLRLSCAASGVSLPDYGVSWIRQAPGKGLEWVSVIWGSETTYYNSALKSRFTISRDNAKNSLYLQMDSLRVEDTAVYYCAGHYYYGGSYAMDYWGQGTLVTVSS
VL: DIVMTQTPSSLSASVGDRVTITCRASQDISKYLNWYQQKPGKVPNLLIYHTSRLHSGVPSRFSGSGSGTEFTLTISSLQPEDFATYYCQQGNTLPYTFGGGTKVEIKR
B6: VH5VL39 (antibody, V domains shown)
VH: EVQLVESGGGLVKPGGSLRLSCAASGVSLPDYGVSWIRQAPGKGLEWVSVIWGSETTYYNSALKSRFTISRDNAKNSLYLQMDSLRVEDTAVYYCAGHYYYGGSYAMDYWGQGTLVTVSS
VL: DIVMTQSPSTLSASVGDRVTITCRASQDISKYLNWYQQKPGKAPKLLIYHTSRLHSGVPSRFSGSGSGTEFTLTISSLQPDDFATYYCQQGNTLPYTFGQGTKVEIKR
B7: VH20/VL44 (antibody, human IgG1, V domains shown)
VH: QVQLVQSGGGLVQPGGSLRLSCVASGVSLPDYGVSWVRQAPGKGLEWVSVIWGSETTYYNSALKSRFTISRDNAKNSLYLQMNSLRAEDTAVYYCARHYYYGGSYAMDYWGQGTLVTVSS
VL: DIVMTQSPSSMSASIGDRVTITCRASQDISKYLNWYQQKPGKAPNLLIYHTSRLHSGVPSRFSGSGSGTEFTLTISSLQPEDFATYYCQQGNTLPYTFGQGTKLEIKR
B8: VH20/VL43 (antibody, human IgG1, V domains shown)
VH: QVQLVQSGGGLVQPGGSLRLSCVASGVSLPDYGVSWVRQAPGKGLEWVSVIWGSETTYYNSALKSRFTISRDNAKNSLYLQMNSLRAEDTAVYYCARHYYYGGSYAMDYWGQGTLVTVSS
VL: DIVMTQTPSSLSASVGDRVTITCRASQDISKYLNWYQQKPGKAPKLLIYHTSRLHSGVPSRFSGSGSGTDFTLTISSLQPEDFATYYCQQGNTLPYTFGPGTKVDIKR
B9: VH16/VL44 (antibody, human IgG1, V domains shown)
VH: QVQLVQSGGGVVQPGRSLRLSCAASGVSLPDYGVSWVRQAPGKGLEWVAVIWGSETTYYNSALKSRFTISRDNSKNTLYLQMNSLRAEDTAVYYCARHYYYGGSYAMDYWGQGTLVTVSS
VL: DIVMTQSPSSMSASIGDRVTITCRASQDISKYLNWYQQKPGKAPNLLIYHTSRLHSGVPSRFSGSGSGTEFTLTISSLQPEDFATYYCQQGNTLPYTFGQGTKLEIKR
B10: VH5VL43 (antibody, V domains shown)
VH: EVQLVESGGGLVKPGGSLRLSCAASGVSLPDYGVSWIRQAPGKGLEWVSVIWGSETTYYNSALKSRFTISRDNAKNSLYLQMDSLRVEDTAVYYCAGHYYYGGSYAMDYWGQGTLVTVSS
VL: DIVMTQTPSSLSASVGDRVTITCRASQDISKYLNWYQQKPGKAPKLLIYHTSRLHSGVPSRFSGSGSGTDFTLTISSLQPEDFATYYCQQGNTLPYTFGPGTKVDIKR
B11: VH16/VL39 (antibody, human IgG1, V domains shown)
VH: QVQLVQSGGGVVQPGRSLRLSCAASGVSLPDYGVSWVRQAPGKGLEWVAVIWGSETTYYNSALKSRFTISRDNSKNTLYLQMNSLRAEDTAVYYCARHYYYGGSYAMDYWGQGTLVTVSS
VL: DIVMTQSPSTLSASVGDRVTITCRASQDISKYLNWYQQKPGKAPKLLIYHTSRLHSGVPSRFSGSGSGTEFTLTISSLQPDDFATYYCQQGNTLPYTFGQGTKVEIKR
B12: VH16/VL40 (antibody, human IgG1, V domains shown)
VH: QVQLVQSGGGVVQPGRSLRLSCAASGVSLPDYGVSWVRQAPGKGLEWVAVIWGSETTYYNSALKSRFTISRDNSKNTLYLQMNSLRAEDTAVYYCARHYYYGGSYAMDYWGQGTLVTVSS
VL: DIVMTQTPSSLSASVGDRVTITCRASQDISKYLNWYQQKPGKVPNLLIYHTSRLHSGVPSRFSGSGSGTEFTLTISSLQPEDFATYYCQQGNTLPYTFGGGTKVEIKR
B13: VH20/VL39 (antibody, human IgG1, V domains shown)
VH: QVQLVQSGGGLVQPGGSLRLSCVASGVSLPDYGVSWVRQAPGKGLEWVSVIWGSETTYYNSALKSRFTISRDNAKNSLYLQMNSLRAEDTAVYYCARHYYYGGSYAMDYWGQGTLVTVSS
VL: DIVMTQSPSTLSASVGDRVTITCRASQDISKYLNWYQQKPGKAPKLLIYHTSRLHSGVPSRFSGSGSGTEFTLTISSLQPDDFATYYCQQGNTLPYTFGQGTKVEIKR
B14: VH20/VL40 (antibody, human IgG1, V domains shown)
VH: QVQLVQSGGGLVQPGGSLRLSCVASGVSLPDYGVSWVRQAPGKGLEWVSVIWGSETTYYNSALKSRFTISRDNAKNSLYLQMNSLRAEDTAVYYCARHYYYGGSYAMDYWGQGTLVTVSS
VL: DIVMTQTPSSLSASVGDRVTITCRASQDISKYLNWYQQKPGKVPNLLIYHTSRLHSGVPSRFSGSGSGTEFTLTISSLQPEDFATYYCQQGNTLPYTFGGGTKVEIKR
B15: VH16-Q6E/VL43-V3Q/T7S (antibody, human IgG1, name in Kabat numbering, V domains shown)
VH: QVQLVESGGGVVQPGRSLRLSCAASGVSLPDYGVSWVRQAPGKGLEWVAVIWGSETTYYNSALKSRFTISRDNSKNTLYLQMNSLRAEDTAVYYCARHYYYGGSYAMDYWGQGTLVTVSS
VL: DIQMTQSPSSLSASVGDRVTITCRASQDISKYLNWYQQKPGKAPKLLIYHTSRLHSGVPSRFSGSGSGTDFTLTISSLQPEDFATYYCQQGNTLPYTFGPGTKVDIKR
notes: substitutions in Kabat numbering
B16: VH16/VL43-V3Q/T7S (antibody, human IgG1, V domains shown)
VH: QVQLVQSGGGVVQPGRSLRLSCAASGVSLPDYGVSWVRQAPGKGLEWVAVIWGSETTYYNSALKSRFTISRDNSKNTLYLQMNSLRAEDTAVYYCARHYYYGGSYAMDYWGQGTLVTVSS
VL: DIQMTQSPSSLSASVGDRVTITCRASQDISKYLNWYQQKPGKAPKLLIYHTSRLHSGVPSRFSGSGSGTDFTLTISSLQPEDFATYYCQQGNTLPYTFGPGTKVDIKR
notes: as for B15
B17: VH16-R94K/VL43-V3Q/T7S (antibody, human IgG1)
heavy: not shown
VL: DIQMTQSPSSLSASVGDRVTITCRASQDISKYLNWYQQKPGKAPKLLIYHTSRLHSGVPSRFSGSGSGTDFTLTISSLQPEDFATYYCQQGNTLPYTFGPGTKVDIKRTVAA
notes: as for B1

The target in one experiment is T1, human CD19. As to the kind of experiment: flow cytometry, Raji cells, MPF vs chimeric FMC63. The protocol:
(§1) Binding of the CD19 humanized monoclonal antibodies by flow cytometry to Raji tumor cells (human Burkitt lymphoma, DSMZ ACC319), NALM-6 (human B cell precursor leukemia, DSMZ ACC128) and SU-DHL-6 (human B cell lymphoma, DSMZ ACC572) (all cell lines from DSMZ Braunschweig, Deutschland) was assessed. Cells were incubated with serial dilutions of each humanized monoclonal antibody. An irrelevant human IgG1 was used as a negative control. The cells were washed and detected by a phycoerythrin-labeled (PE) anti-human secondary antibody (eBioscience, CA, USA) and analyzed by flow cytometry. […] From MFI versus antibody concentration curves, Mid-Point Fluorescence (MPF) value for each anti-CD19 humanized antibody was calculated using the software GraphPad Prism 5 (CA, USA).
Background: Flow cytometry measures light scatter and fluorescence of single cells or particles in a stream.
Turning to B1, the “relative MPF (% of chimeric FMC63)” value came to 52.9%.

A further experiment concerns the target T1, human CD19. As to the kind of experiment: flow cytometry, Raji cells, MPF vs chimeric FMC63. This is another data set of the same source. On the procedure:
as §1
For the molecule B2, the “relative MPF (% of chimeric FMC63)” value stood at 25.9%. Regarding B3, the “relative MPF (% of chimeric FMC63)” value is 34.1%.

The next experiment has as its target T1, human CD19. The experiment is described as follows: flow cytometry on Raji cells, PE-labelled anti-human secondary antibody, MFI against antibody concentration. On the procedure:
These immunoglobulins were assessed for antigen-binding affinity by half-maximal binding assays on B-cell lymphoma cell-lines (FACS) and compared to a chimeric version of FMC63 (this was to standardized level of staining from the anti-human Fc PE-labeled detection-antibody, as described in Example 2).
as §1
As for B4, the binding result was “no binding (tested: about 10 ug/ml (Log(ug/ml) about 1))”. Turning to B5, the binding result is “no binding (tested: about 10 ug/ml (Log(ug/ml) about 1))”. Turning to B6, the binding result is listed as “no binding (tested: about 10 ug/ml (Log(ug/ml) about 1))”. In the case of B7, the binding result was “binds”. The same measure, in the same setting: the entry for B8 is “binds”; for B9 it is “binds”. For the molecule B10, the binding result is listed as “no binding (tested: about 10 ug/ml (Log(ug/ml) about 1))”. On the same count and under the same terms, the entry for B11 is “binds”. As to B12, the binding result is “binds”. Still for that read-out and setting: under B13 stands “binds”.

Turning to B14, the binding result was “binds”.

For another experiment, the target named is T1, human CD19. The experiment is described as follows: flow cytometry, Raji cells, MPF vs chimeric FMC63. The source holds these as a separate data set. On the procedure: as §1
Consider B15, for which the “relative MPF (% of chimeric FMC63)” value worked out at 5.68%. As for B16, the “relative MPF (% of chimeric FMC63)” value turned out to be 4.93%.

As to B17, the “relative MPF (% of chimeric FMC63)” value worked out at 27.8%.

A further experiment addresses T1, human CD19. As to the kind of experiment: flow cytometry, NALM-6 cells, MPF vs chimeric FMC63. The protocol: as §1
B1: the “relative MPF (% of chimeric FMC63)” value was 32.9%.
